Data on one molecule can be found in PMC6915026.

The target of this data set is alpha-synuclein (UniProt P37840 1-140). As to the kind of experiment: interdigitated electrode current change (aptamer-GNP immobilized); 1 uM protein; titration 10 pM-1 uM, detection limit 10 pM (not a Kd); Aptamer-GNP on APTES-modified IDE, blocked with 1 M ethanolamine (30 min, RT); PBS listed as reagent, binding buffer, salt, pH and temperature not stated.

B1: antisynuclein aptamer (ssDNA)
DNA: ATAGTCCCATCATTCATTGTATGGTACGGCGCGGTGGCGGGTGCGTGGAGATATTAGCAAGTGTCA
Take B1: the binding result is given as “binds”.
